According to paper PMC6123696, “Multitasking of Hsp70 chaperone in the biogenesis of bacterial functional amyloids” (Communications Biology, 2018):

B1: CsgA_(2–20) (signal peptide of CsgA without the N-terminal Met) (peptide)
peptide: KLLKVAAIAAIVFSGSALA
notes: also called CsgA signal peptide; source: synthetic peptide (Eurofins Genomics, HPLC >95%)
B2: CsgA_(133–151) (R5, the most amyloidogenic of the five repeats) (peptide)
peptide: SSVNVTQVGFGNNATAHQY
notes: source: synthetic peptide (Eurofins Genomics, HPLC >95%)
B3: N-terminal 8-amino acid peptide of CsgA (NH2-KLLKVAAI-COOH) (peptide)
peptide: H-KLLKVAAI-OH
notes: source: synthetic peptide, CelluSpot peptide array (Intavis Bioanalytical Instruments)
B4: N-terminal 8-amino acid peptide of CsgB (NH2-KNKLLFMM-COOH) (peptide)
peptide: H-KNKLLFMM-OH
notes: as for B3

Columns and labels:
[1] = molecular target: T1, N-terminal His-tagged DnaK (His-DnaK) (E. coli, UniProt P0A6Y8 1-638); experiment: SPR; BIAcore T200; CsgA peptides immobilised on a CM7 chip by EDC/NHS coupling; DnaK 50–1000 nM as analyte, single-cycle kinetics; 25 °C; HBS-DM buffer (10 mM HEPES pH 7.4, 150 mM NaCl, 5 mM MgCl2, 1% dimethylsulfoxide); 30 μL min^−1; fit with a 1:1 binding mode; settings: both partners purified
T1 construct: also called DnaKWT; bacterial Hsp70; source: E. coli BL21 (DE3), from pDnaKWT (ASKA clone), purified (TALON, Mono Q, Superdex G-200); not shown: His tag, N-terminal, kept
T1 sequence (P0A6Y8 whole entry): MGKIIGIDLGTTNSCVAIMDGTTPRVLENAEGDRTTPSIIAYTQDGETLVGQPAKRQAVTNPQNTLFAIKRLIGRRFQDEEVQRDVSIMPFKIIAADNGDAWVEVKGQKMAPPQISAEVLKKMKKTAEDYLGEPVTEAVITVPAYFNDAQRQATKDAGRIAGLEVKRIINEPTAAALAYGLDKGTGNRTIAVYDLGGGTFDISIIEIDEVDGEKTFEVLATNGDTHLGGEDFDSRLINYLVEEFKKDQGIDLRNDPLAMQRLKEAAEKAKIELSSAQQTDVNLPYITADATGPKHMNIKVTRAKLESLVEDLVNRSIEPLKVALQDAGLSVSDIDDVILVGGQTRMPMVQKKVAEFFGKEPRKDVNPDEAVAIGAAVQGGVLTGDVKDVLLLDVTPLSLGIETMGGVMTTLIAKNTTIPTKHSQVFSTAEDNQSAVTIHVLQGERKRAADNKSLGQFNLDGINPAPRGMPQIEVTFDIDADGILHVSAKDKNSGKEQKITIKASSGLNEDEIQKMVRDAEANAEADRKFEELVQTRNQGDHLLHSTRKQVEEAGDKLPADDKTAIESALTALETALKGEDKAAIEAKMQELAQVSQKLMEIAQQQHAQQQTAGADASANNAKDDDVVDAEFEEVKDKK

[2] = molecular target: T1, N-terminal His-tagged DnaK (His-DnaK); experiment: peptide or protein array; CelluSpot array of cellulose-bound peptides on glass slides (8-residue peptides overlapping by seven); 50 nM His-DnaK in DB buffer (25 mM Tris-HCl pH 7.5, 150 mM NaCl, 10 mM KCl, 0.05% Tween 20, 5% sucrose) overnight at 4 °C; detected with HRP-conjugated anti-His antibody; settings: both partners purified

Binder | Kd [1] | koff [1] | kon [1] | binding result [2]
B1 | 2.19 nM | 0.000256 s⁻¹ | 117000 M⁻¹ s⁻¹ | –
B2 | 20.7 nM | 9.77e-05 s⁻¹ | 4720 M⁻¹ s⁻¹ | –
B3 | – | – | – | binds
B4 | – | – | – | binds
